Experimental findings from the RNAGym collection of RNA variant scans (doi:10.7554/elife.80360) are described below.

B1: Hairpin Ribozyme (parent)
chain: GUCCUCUUUCACGUGCGCGUGAAAGAGAGAAGUGAACCAGAGAAACACACGUUGUGGUAUAUUACCUGGUA

This data set covers variants of B1. Description: self-cleavage, relative activity (ratio to wild type); higher = more cleavage; co-transcriptional.
Consider GUCCUCUUUCACGUGCGCGUGAAAGAGAGAAGUGAACCAGAUAAACACACGUUGUGGUAUAUUACAUGGUA [G42U C66A], for which the self-cleavage was 0.162. Then GUCCUCUUUCACGUGCGCGUGAAAGAGAGAAGUGAACCAGAUAAACACACGUUGUCGUAUAUUACCUGGUA [G42U G56C], with 0.147; and GUCCUCUUUCACGUGCGCGUGAAAGAGAGAAGUGAACCAGAUAAACACACGUUGUUGUAUAUUACCUGGUA [G42U G56U], with 0.169; and GUCCUCUUUCACGUGCGCGUGAAAGAGAGAAGUGAACCAGACAAACACACGUUGUGGUAUAUUACCUGGGA [G42C U70G], with 0.145. On to GUCCUCUUUCACGUGCGCGUGAAAGAGAGAAGUGAACCAGAUAAACACGCGUUGUGGUAUAUUACCUGGUA [G42U A49G], for which the self-cleavage turned out to be 0.134. Turning to GUCCUCUUUCACGUGCGCGUGAAAGAGAGAAGUGAACCAGACAAACACACGUUGUGGUACAUUACCUGGUA [G42C U60C], the self-cleavage amounted to 0.419. For GUCCUCUUUCACGUGCGCGUGAAAGAGAGAAGUGAACCAGAUAAACACACGUUGUGGUAUUUUACCUGGUA [G42U A61U], the self-cleavage is 0.283. For GUCCUCUUUCACGUGCGCGUGAAAGAGAGAAGUGAACCAGAUAAUCACACGUUGUGGUAUAUUACCUGGUA [G42U A45U], the self-cleavage was found to be 0.112.

As to GUCCUCUUUCACGUGCGCGUGAAAGAGAGAAGUGAACCAGAUAAGCACACGUUGUGGUAUAUUACCUGGUA [G42U A45G], the self-cleavage turned out to be 0.131. As for GUCCUCUUUCACGUGCGCGUGAAAGAGAGAAGUGAACCAGAUAACCACACGUUGUGGUAUAUUACCUGGUA [G42U A45C], the self-cleavage is 0.227.

GUCCUCUUUCACGUGCGCGUGAAAGAGAGAAGUGAACCAGAUAAACACACGUUCUGGUAUAUUACCUGGUA [G42U G54C]: the self-cleavage came to 0.122. As to GUCCUCUUUCACGUGCGCGUGAAAGAGAGAAGUGAACCAGAUAAACACACGUUUUGGUAUAUUACCUGGUA [G42U G54U], the self-cleavage worked out at 0.191. As for GUCCUCUUUCACGUGCGCGUGAAAGAGAGAAGUGAACCAGAUAAACACACGUUAUGGUAUAUUACCUGGUA [G42U G54A], the self-cleavage turned out to be 0.197.

Turning to GUCCUCUUUCACGUGCGCGUGAAAGAGAGAAGUGAACCAGACAAACACACGUUGUGGUAUAGUACCUGGUA [G42C U62G], the self-cleavage came out at 0.0896.

As to GUCCUCUUUCACGUGCGCGUGAAAGAGAGAAGUGAACCAGACAAACACACGUUGUGGUAUAAUACCUGGUA [G42C U62A], the self-cleavage turned out to be 0.102.

For GUCCUCUUUCACGUGCGCGUGAAAGAGAGAAGUGAACCAGACAAACACACGUUGUGGUAUACUACCUGGUA [G42C U62C], the self-cleavage was 0.221.

As for GUCCUCUUUCACGUGCGCGUGAAAGAGAGAAGUGAACCAGAUAAACACACUUUGUGGUAUAUUACCUGGUA [G42U G51U], the self-cleavage turned out to be 0.345. With GUCCUCUUUCACGUGCGCGUGAAAGAGAGAAGUGAACCAGAUAAACACACAUUGUGGUAUAUUACCUGGUA [G42U G51A], the self-cleavage is 0.191.

Regarding GUCCUCUUUCACGUGCGCGUGAAAGAGAGAAGUGAACCAGAUAAACACACGUUGUGGUAUAUUACCUAGUA [G42U G68A], the self-cleavage came out at 0.129. Consider GUCCUCUUUCACGUGCGCGUGAAAGAGAGAAGUGAACCAGAUAAACACACGUUGUGGUAUAUUACCUCGUA [G42U G68C], for which the self-cleavage came out at 0.152.

Take GUCCUCUUUCACGUGCGCGUGAAAGAGAGAAGUGAACCAGAUAAACACACGUUGUGGUAUAUUAGCUGGUA [G42U C65G]: the self-cleavage was 0.209. On to GUCCUCUUUCACGUGCGCGUGAAAGAGAGAAGUGAACCAGAUAAACACACGUUGAGGUAUAUUACCUGGUA [G42U U55A], for which the self-cleavage worked out at 0.069. Then GUCCUCUUUCACGUGCGCGUGAAAGAGAGAAGUGAACCAGAUAAAUACACGUUGUGGUAUAUUACCUGGUA [G42U C46U], with 0.205; and GUCCUCUUUCACGUGCGCGUGAAAGAGAGAAGUGAACCAGAUAAACACACGUUGUGUUAUAUUACCUGGUA [G42U G57U], with 0.187; and GUCCUCUUUCACGUGCGCGUGAAAGAGAGAAGUGAACCAGAUAAACACACGUUGUGCUAUAUUACCUGGUA [G42U G57C], with 0.0657. To GUCCUCUUUCACGUGCGCGUGAAAGAGAGAAGUGAACCAGAUAAACACACGUUGUGAUAUAUUACCUGGUA [G42U G57A] belongs 0.187. Consider GUCCUCUUUCACGUGCGCGUGAAAGAGAGAAGUGAACCAGAUAAACACAGGUUGUGGUAUAUUACCUGGUA [G42U C50G], for which the self-cleavage stood at 0.26.

On to GUCCUCUUUCACGUGCGCGUGAAAGAGAGAAGUGAACCAGAUAAACACAAGUUGUGGUAUAUUACCUGGUA [G42U C50A], for which the self-cleavage worked out at 0.189. For GUCCUCUUUCACGUGCGCGUGAAAGAGAGAAGUGAACCAGACAAACACACGUUGUGGUAUAUUACCAGGUA [G42C U67A], the self-cleavage turned out to be 0.0793. As for GUCCUCUUUCACGUGCGCGUGAAAGAGAGAAGUGAACCAGACAAACACACGUUGUGGUAUAUUACCGGGUA [G42C U67G], the self-cleavage stood at 0.125. Then GUCCUCUUUCACGUGCGCGUGAAAGAGAGAAGUGAACCAGAUGAACACACGUUGUGGUAUAUUACCUGGUA [G42U A43G], with 0.102. Regarding GUCCUCUUUCACGUGCGCGUGAAAGAGAGAAGUGAACCAGAUUAACACACGUUGUGGUAUAUUACCUGGUA [G42U A43U], the self-cleavage is 0.108. Turning to GUCCUCUUUCACGUGCGCGUGAAAGAGAGAAGUGAACCAGAUCAACACACGUUGUGGUAUAUUACCUGGUA [G42U A43C], the self-cleavage is 0.179. In the case of GUCCUCUUUCACGUGCGCGUGAAAGAGAGAAGUGAACCAGACAAACACACGUUGUGGUAUAUGACCUGGUA [G42C U63G], the self-cleavage amounted to 0.238. As to GUCCUCUUUCACGUGCGCGUGAAAGAGAGAAGUGAACCAGAUAAACACACGUUGUGGUAUAUUACCUGGUG [G42U A71G], the self-cleavage worked out at 0.393. On to GUCCUCUUUCACGUGCGCGUGAAAGAGAGAAGUGAACCAGAUAAACACACGUUGUGGUAUAUUACCUGGUU [G42U A71U], for which the self-cleavage amounted to 0.217. On to GUCCUCUUUCACGUGCGCGUGAAAGAGAGAAGUGAACCAGAUAAACACACGUUGUGGAAUAUUACCUGGUA [G42U U58A], for which the self-cleavage was determined as 0.0966. To GUCCUCUUUCACGUGCGCGUGAAAGAGAGAAGUGAACCAGAUAAACAAACGUUGUGGUAUAUUACCUGGUA [G42U C48A] belongs 0.215.
